To fix the notation:
B1: Retinol dehydrogenase 12 (Homo sapiens), Q96NR8 (parent)
chain: MLVTLGLLTSFFSFLYMVAPSIRKFFAGGVCRTNVQLPGKVVVITGANTGIGKETARELASRGARVYIACRDVLKGESAASEIRVDTKNSQVLVRKLDLSDTKSIRAFAEGFLAEEKQLHILINNAGVMMCPYSKTADGFETHLGVNHLGHFLLTYLLLERLKVSAPARVVNVSSVAHHIGKIPFHDLQSEKRYSRGFAYCHSKLANVLFTRELAKRLQGTGVTTYAVHPGVVRSELVRHSSLLCLLWRLFSPFVKTAREGAQTSLHCALAEGLEPLSGKYFSDCKRTWVSPRARNNKTAERLWNVSCELLGIRWE

Variants of B1 are the subject of the first test. The note with it: with ubc_human UBC.
For MLVTLGLLTSFFSFLYMVAPSIRKFFAGGVCRTNVQLPGKVVVITGANMGIGKETARELASRGARVYIACRDVLKGESAASEIRVDTKNSQVLVRKLDLSDTKSIRAFAEGFLAEEKQLHILINNAGVMMCPYSKTADGFETHLGVNHLGHFLLTYLLLERLKVSAPARVVNVSSVAHHIGKIPFHDLQSEKRYSRGFAYCHSKLANVLFTRELAKRLQGTGVTTYAVHPGVVRSELVRHSSLLCLLWRLFSPFVKTAREGAQTSLHCALAEGLEPLSGKYFSDCKRTWVSPRARNNKTAERLWNVSCELLGIRWE [T49M], the “effect of a mutation on the interaction” value is “increasing interaction”.

In a further test the parent is B1. The note with it: with ubc_human UBC. This is another data set of the same source.
Regarding MLVTLGLLTSFFSFLYMVAPSIRKFFAGGVCRTNVQLPGKVVVITGANTGNGKETARELASRGARVYIACRDVLKGESAASEIRVDTKNSQVLVRKLDLSDTKSIRAFAEGFLAEEKQLHILINNAGVMMCPYSKTADGFETHLGVNHLGHFLLTYLLLERLKVSAPARVVNVSSVAHHIGKIPFHDLQSEKRYSRGFAYCHSKLANVLFTRELAKRLQGTGVTTYAVHPGVVRSELVRHSSLLCLLWRLFSPFVKTAREGAQTSLHCALAEGLEPLSGKYFSDCKRTWVSPRARNNKTAERLWNVSCELLGIRWE [I51N], the “effect of a mutation on the interaction” value was “increasing interaction”.

The values above are taken from IntAct's records for PubMed 20006610.
